Results taken from US20240092922A1 (EUCURE BEIJING BIOPHARMA, published 2024).

T1: monkey (Rhesus macaque) 4-1BB (r4-1BB) on transfected CHO cells (monkey (Rhesus macaque), UniProt Q07011 24-255 (human entry))
T1 construct: also called rm4-1BB; CHO-r4-1BB
T1 chain: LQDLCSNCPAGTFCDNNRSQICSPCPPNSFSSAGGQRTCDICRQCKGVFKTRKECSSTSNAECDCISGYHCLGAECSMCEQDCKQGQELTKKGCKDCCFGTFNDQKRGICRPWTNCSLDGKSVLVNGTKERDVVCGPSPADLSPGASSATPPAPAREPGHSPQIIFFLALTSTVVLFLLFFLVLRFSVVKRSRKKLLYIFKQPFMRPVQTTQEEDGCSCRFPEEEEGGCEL

B1: 16-1C4 (antibody, V domains shown)
VH: QGQMQQSGAELVKPGASVKLSCKTSGFTFSSSYINWLKQKPGQSLEWIAWIFAGTGGTYYNQKFTGKAQLTVDTSSGTAYMQFSSLTTEDSAIYYCARHSPRATLFDFWGQGTTLTVSS
VL: QIVLSQSPAILSASPGEKVTMTCRASSSVNHMHWYQQRTGFSPKAWIYATSNLASGVPARFSGSGSGTSYSLTISRVEAEDAATYYCQQWSSNPYTFGGGTKLEIK
notes: mouse antibody purified from ascites
B2: 30-5F9 (antibody, V domains shown)
VH: QVQLKESGPGLVAPSQSLSITCTVSGFSLTTYDISWVRQPPGKGLEWLGVIWTGGGTNYNSSFMSRLSISKDNSKNQVFLKMNSLQVDDTAIYYCERVDYWGQGTTLTVSS
VL: DVVMTQTPLSLPVSLGDQASISCRSSQSLVHSNGNTYLHWYLQKPGQSPKLLIYKVSNRFSGVPDRFSGSGSGTAFTFKISRVEAEDLGVYFCSQNTHVPWTFGGGTKLEIK
notes: as for B1
B3: 70-3F9 (antibody, V domains shown)
VH: QVQLQQPGAELVRPGASVKLSCKASGYTFTSYWINWVKQRPGQGLEWIGNIFPSDSYTNYNQKFKDRAKLTVDKSSSTAYMQLSSPTSEDSAVYYCTRFGSSGYPDYYTMEYWGQGTSVTVSS
VL: DIQMTQSPASLSASVGETVTITCRASGNIDNYLAWYQQKQGKSPQLLVYNAKTLAEGVPSRFSGSGSGTEYSLKINSLQPEDFGSYHCQQYWTIPYTFGGGTKLEIK
notes: as for B1
B4: 54-8B11 (antibody, V domains shown)
VH: QIQLVQSGPELKKPGETVKISCKASKFTFTNYGMNWVKQAPGKALKWMGWINTYTGEPTYADDFKGRFDFSLETSATTAYLQINNLKNEDTATYFCARREYYPWVFVYWGQGTLVTVSA
VL: ENVLTQSPAIMSASPGEKVTMTCSASSSVSYMHWYQQKSSTSPKLWIYDTSKLASGVPGRFSGSGSGNSYSLTISSMEAEDVATYYCFQGSGYPLTFGGGTKLEIK
notes: as for B1
B5: 55-8F6 (antibody, V domains shown)
VH: QVQLQQPGAELVRPGASVKLSCKASGYIFTSYWINWVKQRPGQGLEWIGNIYPSDSYTNYNQKFKDKATLTVDKSSSTAYMQLSSPTSEDSAVYYCTRFHYGSSPFDNWGQGTTLTVSS
VL: DIQMTQSTSSLSASLGDRVTISCRASQDISHYLNWYQQKPDGTVKLLIYYTSRLHSGVPSRFSGSGSGTDYSLTISNLEQEDFATYFCQQGHTLPRTFGGGTKLEIK
notes: as for B1
B6: 61-6A7 (antibody, V domains shown)
VH: EVQLQQSGAELVRPGALVKLSCKASGFNIKDYYMHWVKRRPEQGLEWIGWIDPENGNTIYDPKFQDKASITADTSSNTAYLQLSSLTSEDTAVYYCAEGLPWYFDYWGQGTTLTVSS
VL: QIILTQSPALMSASPGEKVTMTCSASSSVSDMNWYQQKPRSSPTPWIYLTSNLSSGVPDRFSGSGSGTSYSLTISSMEAEDAATYYCQQWSGNPLTFGAGTRLELK
notes: as for B1
B7: 69-3C2 (antibody, V domains shown)
VH: DVQLVESGGGLVQPGGSRKLSCAASGFSFSSFGMHWMRQAPEKGLEWVAYISSGSSAIYYADTVKGRFTISRDNPKNTLFLQMTSLRSEDTAMYYCARDWVDYWGQGTTLTVSS
VL: DIQMTQSPASLSVSVGETVTITCRASENIYSNLVWYQQKQGKSPQLLVYTATKLTNGVPSRFSGSGSGTQYSLKINSLQSEDFGTYYCQHFWDTPYTFGGGTKLEMK
notes: as for B1
B8: 45-8E2 (antibody, V domains shown)
VH: EVKLLESGGGLVQPGGSLKLSCAASGFDFSRYWMSWVRQAPGKGLEWIGEIHPDSSAINYTPSLKDKFIISRDNAKNTLYLQMSKVRSEDTALYYCARSYYGRVFDYWGQGTTLTVSS
VL: DIVMTQSPATLSVTPGDRVSLSCRASQSISDYLHWYQQKSHESPRLLIKYASQSISGIPPRFSGSGSGSDFTLSINSVEPEDVGMYYCQDGHSFPPTFGAGTKLELK
notes: as for B1
B9: 70-6F10 (antibody, V domains shown)
VH: QVQLQQSGPELVKPGASVKISCKASGYAFNNSWMNWVKQRPGQGLEWIGRIYPGDGDTDYNGKFKGKATLTADKSSSTAYMQLSSLTSVDSAVYFCARLDGNYYYWYFDVWGAGTTVTVSS
VL: not shown
notes: as for B1

molecular target: T2, mouse 4-1BB (m4-1BB) on transfected CHO cells (mouse, UniProt P20334 24-256); assay: flow cytometry on CHO-m4-1BB cells, anti-mouse-IgG-Fc-FITC (1:100)
T2 construct: also called CHO-m4-1BB
Procedure: (§1) 25 μl CHO cells were added to each well. 25 μl purified anti-h4-1BB antibodies (1 μg/ml) were added to each well and were incubated at 4° C. for 30 minutes.
(§2) After being washed with PBS (1200 rmp, 5 min) twice, 50 μl of FITC labeled anti-mouse IgG Fc antibody (anti-mIgG Fc-FITC) was added into each well at 1:100 dilution, followed by incubating at 4° C. for 30 minutes, and then PBS wash (1200 rmp, 5 min). In some cases, PE labeled anti-mouse IgG Fc antibody (anti-mIgG Fc-PE) was used to label the antibody instead, and was added into each tested well at 1:500 dilution. The signals for FITC and PE were determined by flow cytometry.

| binding result | Binder |
| --- | --- |
| no binding (tested: 1 µg/ml) | B1 |
| no binding (tested: 1 µg/ml) | B2 |

molecular target: T3, human 4-1BB (h4-1BB) on transiently transfected CHO cells (human, UniProt Q07011 24-255); assay: flow cytometry, CHO cells transfected with human 4-1BB, antibody at 0.01 µg/ml
T3 construct: also called TNFRSF9; CD137
Procedure: (§3) 25 μl CHO cells transiently transfected with human 4-1BB were added to each well in a plate. The purified antibodies were titrated to final concentrations of 10, 1, 0.1, 0.01, 0.001 μg/ml. The titrated antibodies were added to each well at 4° C. and incubated for 30 minutes.
(§4) After being washed with phosphate-buffered saline (PBS) (1200 rpm, 5 minutes) twice, 50 μl of FITC labeled anti-mouse IgG Fc antibody (anti-mIgG Fc-FITC) at 1:100 dilution was added into each well, and incubated for 30 minutes at 4° C., followed by PBS wash (1200 rpm, 5 minutes). The signal for FITC was detected by flow cytometry.

| percentage of cells with FITC signal | Binder |
| --- | --- |
| 6.61% | B1 |
| 3.37% | B3 |
| 0.445% | B4 |
| 0.571% | B5 |
| 17% | B6 |
| 26.2% | B7 |
| 9.06% | B8 |
| 0.913% | B9 |
| 0.72% | B2 |

molecular target: T3, human 4-1BB (h4-1BB) on transiently …; assay: flow cytometry, CHO cells transfected with human 4-1BB, antibody at 10 µg/ml
Procedure: as §3, §4

| percentage of cells with FITC signal | Binder |
| --- | --- |
| 69.1% | B1 |
| 56.7% | B3 |
| 49.8% | B4 |
| 53.6% | B5 |
| 63% | B6 |
| 58.5% | B7 |
| 58.9% | B8 |
| 52.9% | B9 |
| 68.9% | B2 |

molecular target: T4, chimeric (mouse and human) 4-1BB (c4-1BB) on transfected CHO cells (chimeric (mouse and human)); assay: flow cytometry on transfected CHO cells;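 also: antibodies tested at 1 µg/ml on CHO cells for 30 min at 4 °C, binding detected with FITC- or PE-labeled anti-mouse IgG Fc secondary by flow cytometry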
T4 construct: also called chi4-1BB; CHO-c4-1BB
Procedure: as §1, §2

| binding result | Binder |
| --- | --- |
| binds | B3 |
| binds | B4 |
| binds | B5 |
| binds | B6 |
| binds | B7 |
| binds | B8 |
| binds | B9 |

Molecular target: T1, monkey (Rhesus macaque) 4-1BB (r4-1BB) …
Assay: flow cytometry on transfected CHO cells;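 also: antibodies tested at 1 µg/ml on CHO cells for 30 min at 4 °C, binding detected with FITC- or PE-labeled anti-mouse IgG Fc secondary by flow cytometry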
Procedure: as §1, §2

| binding result | Binder |
| --- | --- |
| binds | B3 |
| binds | B4 |
| binds | B5 |
| binds | B6 |
| binds | B7 |
| binds | B8 |
| binds | B9 |

molecular target: T3, human 4-1BB (h4-1BB) on transiently …; assay: flow cytometry, CHO cells transfected with human 4-1BB, antibody at 0.001 µg/ml
Procedure: as §3, §4

| percentage of cells with FITC signal | Binder |
| --- | --- |
| 0.316% | B1 |
| 1.25% | B3 |
| 0.111% | B4 |
| 0.375% | B5 |
| 3.43% | B6 |
| 0.183% | B7 |
| 1.52% | B8 |
| 0.962% | B9 |
| 0.802% | B2 |

molecular target: T3, human 4-1BB (h4-1BB) on transiently …; assay: flow cytometry, CHO cells transfected with human 4-1BB, antibody at 0.1 µg/ml
Procedure: as §3, §4

| percentage of cells with FITC signal | Binder |
| --- | --- |
| 49.7% | B1 |
| 9.06% | B3 |
| 16.5% | B4 |
| 36.1% | B5 |
| 51.1% | B6 |
| 52.3% | B7 |
| 49.8% | B8 |
| 1.14% | B9 |
| 25.3% | B2 |

molecular target: T2, mouse 4-1BB (m4-1BB) on transfected CHO …; assay: flow cytometry on CHO cells transfected with mouse 4-1BB
Procedure: as §1, §2

| binding result | Binder |
| --- | --- |
| no binding (tested: 1 µg/ml) | B3 |
| no binding (tested: 1 µg/ml) | B4 |
| no binding (tested: 1 µg/ml) | B5 |
| no binding (tested: 1 µg/ml) | B6 |
| no binding (tested: 1 µg/ml) | B7 |
| no binding (tested: 1 µg/ml) | B8 |
| no binding (tested: 1 µg/ml) | B9 |

molecular target: T3, human 4-1BB (h4-1BB) on transiently …; assay: flow cytometry, CHO cells transfected with human 4-1BB, antibody at 1 µg/ml
Procedure: as §3, §4

| percentage of cells with FITC signal | Binder |
| --- | --- |
| 69% | B1 |
| 56.4% | B3 |
| 45% | B4 |
| 52.3% | B5 |
| 60.1% | B6 |
| 62.9% | B7 |
| 60.1% | B8 |
| 23.7% | B9 |
| 56.2% | B2 |
